In US20070254316:

Columns and labels:
[1] = tested on: T1, R5-XC1 peptide (free peptide, CQKHHNYLC)
T1 sequence: CQKHHNYLC

[2] = tested on: T2, R4-C9 peptide (free peptide, CTLVPHTRC)
T2 sequence: CTLVPHTRC

xPSM (extracellular portion of human PSMA, Tag-xPSM digested with enterokinase, no affinity tags)
NAALADase activity (hydrolysis of N-acetyl-L-aspartyl-L-[3,4-3H]glutamate by purified xPSM) [1]: two selected PSMA binding peptides enhanced, rather than inhibited, enzyme activity in a dose dependant manner | NAALADase activity (hydrolysis of N-acetyl-L-aspartyl-L-[3,4-3H]glutamate by purified xPSM) [2]: two selected PSMA binding peptides enhanced, rather than inhibited, enzyme activity in a dose dependant manner
